Experimental findings from PMC9136706 are described below.

Test [1] has as its target Expanded P22 virus-like particle (bacteriophage P22 capsid) (bacteriophage P22) (UniProt P26747). Put plainly: SEC-MALS.
Test [2] has as its target DechCD40L (Dec-fused human CD40L) (bacteriophage L | human) (UniProt P29965). As to the kind of experiment: SEC.
The target in test [3] is human CD40 on HEK-Blue CD40L cells (human) (UniProt P25942).

“And” between values parts separate entries of the source, which are not always exact repeats. Identical values can stand only once.

UniProt P25942, sequence (P25942 21-277): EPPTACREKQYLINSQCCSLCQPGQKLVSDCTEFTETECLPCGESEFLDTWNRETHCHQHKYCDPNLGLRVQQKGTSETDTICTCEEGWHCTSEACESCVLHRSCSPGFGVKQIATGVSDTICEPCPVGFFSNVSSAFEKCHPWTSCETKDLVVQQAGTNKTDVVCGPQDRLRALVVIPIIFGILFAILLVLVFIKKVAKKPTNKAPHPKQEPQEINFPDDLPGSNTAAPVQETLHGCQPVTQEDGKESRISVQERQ
UniProt P26747, sequence (P26747 whole entry, the tested form may be a part): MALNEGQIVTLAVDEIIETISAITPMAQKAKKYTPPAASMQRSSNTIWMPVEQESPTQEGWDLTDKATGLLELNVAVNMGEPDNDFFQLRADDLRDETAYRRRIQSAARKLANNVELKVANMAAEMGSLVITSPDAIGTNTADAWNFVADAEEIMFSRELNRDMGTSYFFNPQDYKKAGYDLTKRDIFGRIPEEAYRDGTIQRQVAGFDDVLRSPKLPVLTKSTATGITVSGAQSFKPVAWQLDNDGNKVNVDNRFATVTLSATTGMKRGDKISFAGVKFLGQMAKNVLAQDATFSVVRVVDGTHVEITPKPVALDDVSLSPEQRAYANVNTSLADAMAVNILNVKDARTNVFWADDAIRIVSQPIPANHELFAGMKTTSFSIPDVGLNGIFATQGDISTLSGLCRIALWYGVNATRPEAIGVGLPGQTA

In test [1], “Dec (decoration protein of bacteriophage L), wild type (natural protein)” came in with a stoichiometry N (Dec per capsid) of 60.
In the case of “DechCD40L (Dec-fused human CD40L) (from UniProt P29965 114-261) (ligand)”, in test [2], the percent of the total peak in the shoulder multimer peak was determined as 8.2%; the stoichiometry N was 3 and 6.
As to “DechCD40L bound to P22 (DechCD40L-P22) (from UniProt P29965 114-261; P26747 1-430) (complex)”, the fold lower EC50 of the SEAP reporter than free hCD40L in test [3] stood at 53.6 fold.
